Laboratory results from patent publication US20020034767A1, “Compositions and methods for modulating the activity of G protein-coupled receptor kinases GRK5 and GRK6” (priority 1993, published 2002).

What was measured:
Assay in all cases: cell-based or functional assay
[1] = target: rhodopsin in urea treated rod outer segments (bovine) (UniProt P02699)
[2] = target: G protein-coupled receptor kinase GRK5 (human) (human) (UniProt P34947)
[3] = target: G protein-coupled receptor kinase GRK6 (human) (human) (UniProt P43250)
G protein-coupled receptor kinase GRK6 (human) (human), sequence (P43250 other isoform, or with tags, fused parts or gaps limits assumed): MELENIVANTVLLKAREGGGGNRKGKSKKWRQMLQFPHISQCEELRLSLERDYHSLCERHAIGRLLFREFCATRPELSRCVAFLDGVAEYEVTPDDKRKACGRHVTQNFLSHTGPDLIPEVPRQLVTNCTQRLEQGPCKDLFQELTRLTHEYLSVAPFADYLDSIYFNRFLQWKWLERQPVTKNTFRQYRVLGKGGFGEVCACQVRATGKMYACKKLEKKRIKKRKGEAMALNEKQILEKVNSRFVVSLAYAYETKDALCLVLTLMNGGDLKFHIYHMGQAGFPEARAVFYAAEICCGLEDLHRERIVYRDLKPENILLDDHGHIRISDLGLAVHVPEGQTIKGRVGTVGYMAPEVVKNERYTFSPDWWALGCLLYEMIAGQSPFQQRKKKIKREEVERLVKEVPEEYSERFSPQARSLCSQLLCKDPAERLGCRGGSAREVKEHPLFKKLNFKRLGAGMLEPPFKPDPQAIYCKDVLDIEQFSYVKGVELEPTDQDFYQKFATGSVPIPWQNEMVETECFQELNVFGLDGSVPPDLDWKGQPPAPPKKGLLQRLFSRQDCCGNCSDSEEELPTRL

rhodopsin in urea treated rod outer segments (bovine), sequence (P02699 whole entry): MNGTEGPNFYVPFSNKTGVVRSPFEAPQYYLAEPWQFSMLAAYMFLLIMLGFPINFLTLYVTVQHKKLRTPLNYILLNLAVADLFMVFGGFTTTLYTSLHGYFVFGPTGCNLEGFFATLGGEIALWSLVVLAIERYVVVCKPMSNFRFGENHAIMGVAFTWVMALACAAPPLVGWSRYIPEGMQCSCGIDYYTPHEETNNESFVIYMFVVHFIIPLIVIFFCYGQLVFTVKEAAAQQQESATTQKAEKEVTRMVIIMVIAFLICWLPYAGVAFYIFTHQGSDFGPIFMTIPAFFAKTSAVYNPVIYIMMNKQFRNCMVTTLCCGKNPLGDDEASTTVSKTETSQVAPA
G protein-coupled receptor kinase GRK5 (human) (human), sequence (P34947 whole entry E78G): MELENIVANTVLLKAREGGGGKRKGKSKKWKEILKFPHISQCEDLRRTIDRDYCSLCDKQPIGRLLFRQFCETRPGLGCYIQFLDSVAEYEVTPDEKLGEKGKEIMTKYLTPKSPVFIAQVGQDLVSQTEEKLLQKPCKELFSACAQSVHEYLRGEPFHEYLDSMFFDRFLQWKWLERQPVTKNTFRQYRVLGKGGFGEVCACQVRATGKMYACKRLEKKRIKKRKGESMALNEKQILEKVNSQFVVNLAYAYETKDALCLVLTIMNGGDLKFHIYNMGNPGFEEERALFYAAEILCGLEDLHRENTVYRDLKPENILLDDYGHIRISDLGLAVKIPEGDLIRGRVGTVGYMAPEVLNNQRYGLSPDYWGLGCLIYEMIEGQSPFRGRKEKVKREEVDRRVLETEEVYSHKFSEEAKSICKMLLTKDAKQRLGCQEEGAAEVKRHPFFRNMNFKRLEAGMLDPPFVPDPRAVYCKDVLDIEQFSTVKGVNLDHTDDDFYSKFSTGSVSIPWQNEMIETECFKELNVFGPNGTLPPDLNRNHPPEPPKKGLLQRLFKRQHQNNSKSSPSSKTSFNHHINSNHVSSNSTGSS

Substance | light-dependent rhodopsin phosphorylation by Sf9 cell supernatant [1] [pmol/min/mg] | IC50 of inhibition of kinase activity [3] [µM] | fold less effective as inhibitor compared to GRK5 [3] [fold] | also measured
β-adrenergic receptor kinase (enzyme) | 2470 |  |  | 
G protein-coupled receptor kinase GRK5 (human) (from UniProt P34947 1-590) (enzyme) | 1120 |  |  | 
G protein-coupled receptor kinase GRK6 (human) (from UniProt P43250 1-576) (enzyme) |  |  |  | specific activity of phosphorylation of bleached rhodopsin by Sf9 cell supernatant (pmol/min/mg protein) [1]: 81
polylysine, a 14-16 amino acid peptide |  |  |  | fold activation of kinase activity [2]: 2.6 fold
polyaspartic acid (peptide) |  | 0.487 | 6 | 
polyglutamic acid (peptide) |  | 0.4 | 16 | 
